The results in this text go back to patent US8361728B2, “Method for diagnosis of glutamate dehydrogenase disorders” (priority 2008, dated 2013).

Broadly, the Km is the substrate concentration at which the rate is half of its maximum.

Sequence of Ser445-hGDH2 (Homo sapiens) (chain, as listed by the source): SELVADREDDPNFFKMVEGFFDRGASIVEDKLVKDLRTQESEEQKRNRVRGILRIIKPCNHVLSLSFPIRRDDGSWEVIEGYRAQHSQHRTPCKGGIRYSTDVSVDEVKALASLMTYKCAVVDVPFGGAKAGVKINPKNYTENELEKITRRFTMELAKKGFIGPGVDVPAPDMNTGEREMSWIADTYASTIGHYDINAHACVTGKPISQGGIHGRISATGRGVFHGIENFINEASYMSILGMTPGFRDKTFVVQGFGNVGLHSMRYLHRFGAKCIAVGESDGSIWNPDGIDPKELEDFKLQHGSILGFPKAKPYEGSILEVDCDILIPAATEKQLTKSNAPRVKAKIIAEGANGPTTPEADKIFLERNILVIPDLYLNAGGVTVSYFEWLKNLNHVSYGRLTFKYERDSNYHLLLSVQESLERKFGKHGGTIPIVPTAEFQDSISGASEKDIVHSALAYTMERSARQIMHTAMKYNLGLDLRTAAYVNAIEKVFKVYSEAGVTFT
Sequence of Ala445-hGDH2 (Homo sapiens; S498A) (chain, as listed by the source S498A): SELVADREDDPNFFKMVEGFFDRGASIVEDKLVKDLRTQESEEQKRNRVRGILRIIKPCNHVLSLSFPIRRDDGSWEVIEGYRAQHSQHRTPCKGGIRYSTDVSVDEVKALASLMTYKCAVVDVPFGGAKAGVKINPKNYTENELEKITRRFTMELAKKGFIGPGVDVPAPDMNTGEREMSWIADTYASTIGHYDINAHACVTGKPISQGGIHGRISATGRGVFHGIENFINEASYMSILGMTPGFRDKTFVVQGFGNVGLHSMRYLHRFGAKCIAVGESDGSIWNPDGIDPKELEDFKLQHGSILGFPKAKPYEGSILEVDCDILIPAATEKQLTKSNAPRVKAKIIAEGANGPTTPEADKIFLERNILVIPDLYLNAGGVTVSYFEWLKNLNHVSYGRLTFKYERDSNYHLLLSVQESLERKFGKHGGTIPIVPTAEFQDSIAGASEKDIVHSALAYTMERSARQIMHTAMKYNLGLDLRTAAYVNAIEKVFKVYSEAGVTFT

The subject of the series is N. As to the kind of experiment: purified protein, by the assay type.
As for Ala445-hGDH2 (Homo sapiens; S498A), the Km was 21.36 ± 3.56 mM.

Turning to Ser445-hGDH2 (Homo sapiens), the Km is on record as 17.05 ± 2.01 mM.

Turning to hGDH1 (Homo sapiens), the Michaelis constant (Km) is 13.39 ± 0.72 mM.
